{"source": "the nanobody polyreactivity screen of Harvey et al. (2022)", "data": [{"experiment": "yeast display, Sf9 membrane polyspecificity reagent, FACS + sequencing; frameworks hold sequencing errors", "outline": "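Nanobodies from a synthetic yeast display library (Saccharomyces cerevisiae BJ5465), induced 36–48 hours with galactose, were stained 1 hour at 4 °C with 10% biotinylated, detergent-solubilized Sf9 membrane reagent, enriched on streptavidin microbeads, then FACS-sorted. Anti-HA (expression) and streptavidin (reagent binding) fluorescence set low and high (top ~1%) gates. Polyreactivity labels come from the gate of origin. Genes were colony-PCR amplified, MiSeq 2 × 250 sequenced and filtered by CDR length.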", "values": [{"sequence": "QVQLVESGGGLVQAGGSLRLSCAASGSIFYDYAMGWYRQAPGKEREFVAAITSSGGSTYYADSVKGRFTISRDNAKNTVYLQMNSLKPEDTAVYYCAAEDSDAYFIYGYWGQGTQVTVSS", "polyreactivity (PSR sort gate)": "low polyreactivity"}, {"sequence": "QVQLVESGGGLVQAGGSLRLSCAASGSTLQINGMGWYRQAPGKERELVAAISIGSDTNYADSVKGRFTISRDNAKNTEMNSLKPEDTAVYYCAAQRRYHQDTTIGPGNYYYWGQGTQVTVSS", "polyreactivity (PSR sort gate)": "low polyreactivity"}, {"sequence": "QVQLVESGGGLVQAGGSLRLSCAASGRIFGINAMGWYRQAPGKERELVAAINWSGGSTYYADSVKGRFTISRDNAKNTVYLQMNSLKPEDTAVYYCAAQKYKRVGYWGQGTQVTVSS", "polyreactivity (PSR sort gate)": "high polyreactivity"}, {"sequence": "QVQLVESGGGLVQAGGSLRLSCAASGIISYPTVMGWYRQAPGKERELVPAITSGGRTKYADSVKGRFTISRDNAKNTVYLQMNSLKPEDTAVYYCAARTVYWQSWSQFWGYNYWGQGTQVTVSS", "polyreactivity (PSR sort gate)": "low polyreactivity"}, {"sequence": "QVQLVESGGGLVQAGGSLRLSCAASGITFYGYAMGWYRQAPGKERELVAAISKSGGSTHYADSVKGRFTISRDNAKNTVYLQMNSLKPEDTAVYYCATEGYYYYTSYDYWGQGTQVTVSS", "polyreactivity (PSR sort gate)": "low polyreactivity"}, {"sequence": "QVQLVESCGGLVQAGGSLRLSCAASAWYAIGWYRQAPGKEREFVAAITFSGSSTYYADSVKGRFTISRDNAKNTVYLQMNSLKPEDTAVYYCNADWWEWGQGTQVTVSS", "polyreactivity (PSR sort gate)": "low polyreactivity"}, {"sequence": "QVQLVESGGGLVQAGGSLRLSCSASGRTFNKYAMGWYRQAPGKERELVAAISRSGGSTYYADSVKGRFTISRDNAKNTVYLQMNSLKPEDTAVYYCNAAYFGQHVGTGFDYWGQGTQVTVSS", "polyreactivity (PSR sort gate)": "high polyreactivity"}, {"sequence": "QVQLVESGGGLVQAGGSLRLSCAASGLIFRANSMGWYRQPPGKVRELVAAISSGGSTYYADSVKGRFTISRDNAKNTVYLQMNSLIPEDTAFYYCAALGQSPSRFGYWGQGTQVTVSS", "polyreactivity (PSR sort gate)": "low polyreactivity"}, {"sequence": "QVQLQESGGGQVQAGGSLRLSCAPSGYISSWYPKGWYRQAPGKEPEFVATIAPGATNYYADSVKGRFTISRDYAKNTVYQQMNSLKPEDTAVYYCAVVSNGRRERYYYWGQGTQVTVSS", "polyreactivity (PSR sort gate)": "low polyreactivity"}, {"sequence": "QVQLVESGGGLVQAGGTLRLSCAASGRILPRNAMGWSRQAPGKERELVAGISSDGSTNYADSVKGRFTISRDNAKNSVYLQMNILKPEDTAVYYCAADGVYDPYVYGYWGQGTQVTVSS", "polyreactivity (PSR sort gate)": "low polyreactivity"}, {"sequence": "QVQIVESGGGLVQAGGSLRLSCAASGSTFYYNTMGWYRQAPGKERELVAAISWRRVSTYYADSVKGRFTISRDIAKNTVYFQMNSLKPEDTAVYYCNAVHHYPEHIGGGYWGQGSQVTVSS", "polyreactivity (PSR sort gate)": "low polyreactivity"}, {"sequence": "QVQLVESGGGLVQAGGSLRLSCAASGFIFLLYAMGWYRQAPGKERELVAAIDTDTSTNYADSVKGRFTISRDNAKNTVYLQMNSLKPEDTAVYYCAREEPGVSLGVDYDYWGQGTQVTVSS", "polyreactivity (PSR sort gate)": "low polyreactivity"}, {"sequence": "QVQLVESGGGLVQAGGSLRLSCAASGITYRPYAMGWYRQTPGKERELVASISRGGSTYYADSVKGRFTISRDNAKNTVYLQMNSLKPEDTAVYYCAAYFAWRYDYWGQGTQVTVSS", "polyreactivity (PSR sort gate)": "high polyreactivity"}, {"sequence": "QVQLVESGGGLVQAGGSLRLSCAASGGIFSYYAMGWSRQSPGKEREFVAAIDWGGGSTYYADSVKGRFTISRDNAKNTLNLQMNSLKPEDTAVYYCAAEIYPIRWDDYDYWGQGTQVTVSS", "polyreactivity (PSR sort gate)": "low polyreactivity"}, {"sequence": "QVQLVESGGGLVQAGGSLRLICAASGITFAWYAMGWYRQAPGKERELVAAIDDRGGSTYYADSVKWRFTISRDNAKNTVYLQMYSLKPEDTAVYYCNADTPSYEPYRLDYLGQGTQVTVSS", "polyreactivity (PSR sort gate)": "low polyreactivity"}, {"sequence": "QVQLVESGGGLVQAGGSLRLSCAASGRTFYTYAMGWYRPAPGKERELVASISSGGNTNYADSVKGRFTISRDNAKNTVYLQMNSLKPEDTAVYYCAASYLKRRGYWGQGTQVTVSS", "polyreactivity (PSR sort gate)": "low polyreactivity"}, {"sequence": "QGQLVESGGGLVQAGGSLRLSCAAYGRIFYVYAMGWYRQAPGKERELVATITSSGDGTYYADSVKGRFTISRDNAKNTGYLQMNSLIPEDTAVYYCAARSWPYSQTGKRFVEYYYWGQGTQVSVSS", "polyreactivity (PSR sort gate)": "low polyreactivity"}, {"sequence": "QVQMQERAAWCRRAGSLRLSCAASGNITDYYFMSWYRQAPGKERELVAAIAPGSNTYYADSVKGRFTISRDNAKNTVYLQMNSLKPEDTAVCFCAANSTQYTWFDYWGQGTQVPVSS", "polyreactivity (PSR sort gate)": "low polyreactivity"}, {"sequence": "QVQLLESGGGLVQAGGSLRLSCAASGFTFNPYAMGWYRQAPGKERELVARISRGTSTNYADSVKGRFTISRDNAKNTVYLQMNSLKPEDTAVYYCAASYGSFHTYLDYNYWGQGTQVTVSS", "polyreactivity (PSR sort gate)": "low polyreactivity"}, {"sequence": "QVQLVESGGGLVQAGGSLRLSCAASGSTFNYYAMGWYRQAPGKERELVAAISSSGGTTYYADSVKGRFTISRDNAKNTVYLQMKSLKPEDTAVYYCATDTPPYWGGSHFDYWGQGTQVTVSS", "polyreactivity (PSR sort gate)": "low polyreactivity"}, {"sequence": "QVQLVESGGGLVQAGGSLSLSCAASGSIFYVYAMGWYRQAPGKERELVASINKSGGSTYYADSVKGRFTISRDNAKNTVYLQMNSLKPEDTAVYYCAARYGWPRVGFQYPAHVGFDYWGQGTQVTVSS", "polyreactivity (PSR sort gate)": "low polyreactivity"}, {"sequence": "QVQLVESGGGLVQAGGSLRLSCAASGSTFYGYAMGWYRQAPGKERELVAAISSSGTRTYYADSVKGRFTISRDNAKNTVYLQMNSLKPEDTAVYYCNAYYYIPFEGRGYSKMDYWGQGTQVTVSS", "polyreactivity (PSR sort gate)": "high polyreactivity"}, {"sequence": "QVQLVESGGGLVQAGGSLRLSCAASGSTLWRYTMGWYRQAPGKVREFVADINRGSSTNYADSVKGRFTISRDNAKNSVYLQINSLKPEDTAVYYCAAAKVHYGYNSWYYYWRQGTQVTVSS", "polyreactivity (PSR sort gate)": "low polyreactivity"}, {"sequence": "QVQLVESGGGLVQAGGRLRLSCAASGRTFYYNAMGWYRQAPGKERELVAAISSSGGRTYYADSVKGRFTISRDNAKNTVYLQMNSLKPEDTAVYYCAALTNARGFDYWGQGTQVTVSS", "polyreactivity (PSR sort gate)": "high polyreactivity"}, {"sequence": "QVQLVESGGGLVQAGGSLRLSCAASGRTSVRYAMGWYRQAPGKERELVAAISWSGGSTYYADSVKGRFTISRDNAKNTDYLQMNSLKAEDTAVYYCNAQHARGYYYWGQGTQVTVSS", "polyreactivity (PSR sort gate)": "low polyreactivity"}, {"sequence": "QVQLVESGGGLVQAGGSLRLSCAASGSTFVTYAMGWYRQAPGKERELVASISRGGSTKYADSVKGRFTISRDNAKNTVYLQMNSLKPEDTAVYYCAAKAKNYRLGPFDYWGQGTQVTVSS", "polyreactivity (PSR sort gate)": "low polyreactivity"}, {"sequence": "QVQLVESGVGLVQAGGSLSLSCAPSGSTFTSYAMGWYRQAPGKEMELVAAITSRRGTYYADSVKGRFTISRDNAKNTVYLEMTSLKPEVTAVYYCAARAPYKKYPYVKWYDYWGQGTQVTVSS", "polyreactivity (PSR sort gate)": "high polyreactivity"}, {"sequence": "QVQLGESGGGLVQAGGSLRLSCAASGRIFSYNAMRWYRPAPGKERELVAGITSGGRTYYADSVKGRFTISRDNAKNTVYLQMNSLKPEDTAVYYCAARYVPARTRYYFWGQGSQVTVSS", "polyreactivity (PSR sort gate)": "high polyreactivity"}, {"sequence": "QVQLQESGGGLVQAGGSLRLSCAASGTIFRISDMGSYRQAPGKEREFVAAITYGANTYYADSGKGRFTISRDNAKNTVYLQMNSLIPEDTAVYYCAVPPVKETILDYWGQGTQVTVSC", "polyreactivity (PSR sort gate)": "low polyreactivity"}, {"sequence": "QVQLVESGGGLVQAGGSLRLSCAASGTFFIYAMGWYRHAPGKERELVATISTGGSTNYADSVKGRFTISRDNAKNTVYLQMNSLKQEDTAVYYCAAEWLYPHDGGYPRPMDYWGQGTQVTVSS", "polyreactivity (PSR sort gate)": "low polyreactivity"}, {"sequence": "QVQLVESGGGLVQAGGSLRLSCAASGSIFYRYAMGWYRQAPGKERELVAAISFRTGSTYYADSVKGRFTISRDNAKNTVYFQMNSLKPEDTAVYYCAAEQLSTLRQRFDSWGQGTQVTVSS", "polyreactivity (PSR sort gate)": "high polyreactivity"}, {"sequence": "QVQLVESGGGLVQAGGSLRLSCAASGSTFWYYVMGWYRQAPGKERELVAAISTRGDSTYYADSVKGRFTISRDNAKITVYFQMNSLKPEDTAVFDCAKSRQYSGRVRFDYWGKGTQVTVSS", "polyreactivity (PSR sort gate)": "low polyreactivity"}, {"sequence": "QFQLVESGGGLVQAGGSLRLSCAASGRTFPWYAMGWYRQEPGKDRELVAAISWTGGSTYYADSVKGRFTISRDNAKNTVYLQMNSLKPEDTAFYYCAASPWYLKYEYWGQGTQVTVSW", "polyreactivity (PSR sort gate)": "low polyreactivity"}, {"sequence": "QVQLVESGGGLVQAGGSLRLSCAASGSTFYYYAMGWYRQAPGKERELVATITSGASTNYADSVKGRFTISRDNAKNTVYLQMNSLKPEDTAVYYSNAGSLTSYLPWSSYDYWGQGTQVTVSS", "polyreactivity (PSR sort gate)": "low polyreactivity"}, {"sequence": "QVQLVESGGGLVQAGGSLRLSCAASGSIFFYNAMAWYRQAPGKERELVAAINYNGGRTYYADSVKGRFTISRDNAKNTVYLQMNSMKQEDTAVYYCAARYGSGGDYWGQGTQVTVSS", "polyreactivity (PSR sort gate)": "low polyreactivity"}, {"sequence": "QVQLVESGGGLVQAGGSLRLSCAASGSTFGYYAMGWYRQAPGKERELVAAIRSSGGGTYYADSVKGRFTISRDNAKNTVYLQMNSLKPEDTAVYYCATDAPILVNAEYDEWLEYDYWGQGTQVTVSS", "polyreactivity (PSR sort gate)": "low polyreactivity"}, {"sequence": "QVQLVESGGGLVQAGCSLRLSCAASGRTFCYNSMGLYRQAPGKERELVAAISTSGGSTYYADSVKGRFTISRDNAKNTVYLQMNSLKPEDSAVYSCAADSHRSFSLYAYDSWGLGTQVTVSS", "polyreactivity (PSR sort gate)": "low polyreactivity"}, {"sequence": "QVQLVESGGGLVQAGGSLGLTCAASGFIFLDYTMVWYRQAPGIERELVATINASDGSTYYADSVKGRFTISRDNAKKTVYLQMNSLKPEDTAVYYCNTKVISRTSERRGNGFTRYDYWGQGTQVTVSS", "polyreactivity (PSR sort gate)": "low polyreactivity"}, {"sequence": "QVQIVESGGGLVQAGGILRLSCAASGRIFWRNAMGWYRQAPGKEREFVAAITYTAGRTYYADSVKGRFTISRDNSKITVYLQMNSLKPEDTAVYYCAAGSRRPGGTGYDHWVQGTQVTVSS", "polyreactivity (PSR sort gate)": "low polyreactivity"}, {"sequence": "QVQLVESGGGLVQAGGSLRLSCAASGRIFSQNAMGWYRQAPGKERELVAAISGGSTNYADSVKGRFTISRDNAKNTVFLQMNSLKPEDTAVYYCAADAPFKMDYWGQGTQVTVSS", "polyreactivity (PSR sort gate)": "low polyreactivity"}, {"sequence": "QVQLVETGGGLVQAGGSLRLSCAATEFIFRNYDMGWYRQAPGKERELVASISRGTSTNYADSVKGRFTISRDNAKNTVYLQKNSLKPEDTAVYYCNKRFYYHPFDYWGQGSQVTVSS", "polyreactivity (PSR sort gate)": "high polyreactivity"}, {"sequence": "QVQLVESGGGLVQAGGSLRLSCAASGFIFGDYAMGWYRQAPGKERELVAAINRGASTYYADSVKGSFTISRDNPKNTVYLQMNSLTPEDTAVYYCAAAGNSRGGRGGYWGQGTQVSVSS", "polyreactivity (PSR sort gate)": "high polyreactivity"}, {"sequence": "QVQLVETGGGLVQAGGSLRLSCAATGLIFYSYPMGWYRQAPGKERELVAALNGGGGSTYYADSVKGRFTISRDNAKNTVYLQMKSLKPEDTAVYYCAADLYNRGRGSSQSYRTGYDYWGQGTQVTVSS", "polyreactivity (PSR sort gate)": "high polyreactivity"}]}]}
